Experimental data as given in the supplement of paper PMC10724198.
± gives the standard deviation of the averaged measurements.

What was measured:
Saccharomyces cerevisiae [1] = assay: protein stability index of tFT-peptide fusion (C-terminal peptide) (PSI (0-1 scale)); higher = more stable (slower turnover)
Procedure: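 MPS profiling in S. cerevisiae of the tFT-X12 degron library: putative degron peptides plus stable controls, 12 aa, fused to the C-terminus of a sfGFP-mCherry timer. Cells are FACS-sorted into 8 mCherry/sfGFP bins and deep-sequenced. PSI runs from 0 (unstable) to 1 (stable). Backgrounds are wild type, das1Δ and doa10Δ at 30 °C, and wild type, das1Δ, cdc34-1 and cdc53-1 at 37 °C; 2-3 technical replicates each.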

Saccharomyces cerevisiae [2] = assay: as above; conditions: genetic background: wild type; temperature: 30 C
[3] = genetic background: cdc34-1, temperature: 37 C
[4] = genetic background: cdc53-1, temperature: 37 C
[5] = genetic background: das1 deletion, temperature: 30 C
[6] = genetic background: das1 deletion, temperature: 37 C
[7] = genetic background: doa10 deletion, temperature: 30 C
[8] = genetic background: wild type, temperature: 30 C
[9] = genetic background: wild type, temperature: 37 C
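Further: PSI is a weighted mean of sequencing reads over stability bins, variants kept only with over 10 reads, mCherry proximal and sfGFP distal, peptide attached via GGGS linker.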

Sequence	protein stability index (Saccharomyces cerevisiae [1]; [3])	protein stability index (Saccharomyces cerevisiae [1]; [4])	protein stability index (Saccharomyces cerevisiae [1]; [5])	protein stability index (Saccharomyces cerevisiae [1]; [6])	protein stability index (Saccharomyces cerevisiae [1]; [7])	protein stability index (Saccharomyces cerevisiae [1]; [8])	protein stability index (Saccharomyces cerevisiae [1]; [9])	protein stability index (Saccharomyces cerevisiae [2])
VPIIVVVYVFVT	0.13 ± 0.022	0.247 ± 0.11	0.157 ± 0.03	0.306 ± 0.024	0.105 ± 0.025	0.134 ± 0.038	0.258 ± 0.0081	0.203 ± 0.085
VRFLLSLCCALL	0.588 ± 0.03	0.671 ± 0.018	0.548 ± 0.033	0.624 ± 0.042	0.5436 ± 0.0034	0.518 ± 0.021	0.596 ± 0.032	0.4914 ± 0.0025
VRLYLRSCVVES	0.347 ± 0.061	0.368 ± 0.0011	0.228 ± 0.029	0.437 ± 0.0094	0.181 ± 0.0071	0.217 ± 0.026	0.4148 ± 0.0031	0.32 ± 0.021
VRMVIFSSVYLT	0.462 ± 0.002	0.509 ± 0.03	0.362 ± 0.033	0.533 ± 0.0036	0.256 ± 0.008	0.26 ± 0.027	0.448 ± 0.02	0.309 ± 0.0098
VRWLVFFLFLFG	0.501 ± 0.011	0.481 ± 0.013	0.406 ± 0.023	0.555 ± 0.0072	0.322 ± 0.0038	0.327 ± 0.022	0.497 ± 0.016	0.466 ± 0.074
VSCLDLCFVISR	0.647 ± 0.041	0.681 ± 0.022	0.503 ± 0.034	0.66874 ± 0.00016	0.528 ± 0.029	0.514 ± 0.025	0.626 ± 0.018	0.437 ± 0.013
VSCYYVFLIPFW	0.463 ± 0.011	0.6 ± 0.036	0.414 ± 0.038	0.57839 ± 0.00033	0.408 ± 0.018	0.409 ± 0.017	0.56 ± 0.0097	0.484 ± 0.02
VSFLLYNFLSVF	0.286 ± 0.0083	0.418 ± 0.0077	0.346 ± 0.028	0.4643 ± 0.0021	0.053 ± 0.019	0.0707 ± 0.012	0.0652 ± 0.015	0.101 ± 0.0017
VSFLVSIFVSGV	0.189 ± 0.025	0.246 ± 0.036	0.216 ± 0.029	0.372 ± 0.0078	0.2 ± 0.025	0.194 ± 0.048	0.332 ± 0.015	0.303 ± 0.039
VSLLSLGYVFVY	0.286 ± 0.05	0.27 ± 0.03	0.212 ± 0.038	0.3467 ± 0.00073	0.184 ± 0.0098	0.216 ± 0.033	0.319 ± 0.0037	0.307 ± 0.019
VSLLVFVVSSRV	0.345 ± 0.034	0.418 ± 0.0047	0.262 ± 0.031	0.476 ± 0.016	0.223 ± 0.0068	0.255 ± 0.022	0.444 ± 0.013	0.3816 ± 0.0022
VSPPPLSPPLSR	0.677 ± 0.014	0.7238 ± 0.0031	0.6712 ± 0.0055	0.709 ± 0.012	0.686 ± 0.0078	0.673 ± 0.0092	0.688 ± 0.014	0.701 ± 0.0022
VTMTPSLCFSYS	0.688 ± 0.017	0.684 ± 0.023	0.388 ± 0.029	0.668 ± 0.013	0.364 ± 0.0098	0.396 ± 0.01	0.632 ± 0.016	0.464 ± 0.018
VTRLLLSRIDCY	0.437 ± 0.018	0.445 ± 0.0057	0.376 ± 0.028	0.501 ± 0.016	0.346 ± 0.011	0.367 ± 0.025	0.468 ± 0.022	0.445 ± 0.11
VVFLFVEAVVGV	0.0536 ± 0.018	0.0519 ± 0.021	0.0387 ± 0.014	0.0974 ± 0.015	0.0288 ± 0.0048	0.0238 ± 0.0054	0.0933 ± 0.022	0.0707 ± 0.0075
VVFVVGAPPVLC	0.476 ± 0.018	0.481 ± 0.036	0.359 ± 0.024	0.532 ± 0.013	0.323 ± 0.016	0.365 ± 0.0082	0.5068 ± 0.0019	0.4834 ± 0.0027
VVGVVVCWGCGW	0.493 ± 0.02	0.555 ± 0.057	0.393 ± 0.024	0.587 ± 0.0062	0.369 ± 0.021	0.397 ± 0.018	0.535 ± 0.0068	0.45 ± 0.023
VVPWLGYVSCFS	0.452 ± 0.031	0.487 ± 0.027	0.357 ± 0.029	0.521 ± 0.0067	0.324 ± 0.0094	0.366 ± 0.032	0.5026 ± 0.0044	0.465 ± 0.041
VVRAVLCVCASV	0.4577 ± 0.0025	0.489 ± 0.0069	0.409 ± 0.028	0.518 ± 0.0019	0.387 ± 0.012	0.413 ± 0.021	0.489 ± 0.018	0.45987 ± 0.00039
VVRYGGVIAFRG	0.841 ± 0.065	0.641 ± 0.085	0.547 ± 0.017	0.725 ± 0.029	0.579 ± 0.072	0.691 ± 0.13	0.684 ± 0.13	0.596 ± 0.24

Sequence	protein stability index (Saccharomyces cerevisiae [1]; [3])	protein stability index (Saccharomyces cerevisiae [1]; [4])	protein stability index (Saccharomyces cerevisiae [1]; [5])	protein stability index (Saccharomyces cerevisiae [1]; [6])	protein stability index (Saccharomyces cerevisiae [1]; [7])	protein stability index (Saccharomyces cerevisiae [1]; [8])	protein stability index (Saccharomyces cerevisiae [1]; [9])	protein stability index (Saccharomyces cerevisiae [2])
VVWCLLARVLLV	0.332 ± 0.017	0.4 ± 0.02	0.306 ± 0.036	0.46657 ± 0.00033	0.1578 ± 0.00094	0.167 ± 0.019	0.243 ± 0.011	0.218 ± 0.026
VWICPTLFLLFS	0.486 ± 0.03	0.509 ± 0.0088	0.369 ± 0.05	0.544 ± 0.013	0.45736 ± 0.00021	0.374 ± 0.018	0.529 ± 0.0063	0.455 ± 0.014
VYDVSVGVAVVG	0.44 ± 0.018	0.464 ± 0.041	0.34 ± 0.037	0.5196 ± 0.0031	0.291 ± 0.017	0.346 ± 0.025	0.48822 ± 0.00017	0.4567 ± 0.002
VYKSTHKIYILT	0.609 ± 0.011	0.729 ± 0.023	0.53 ± 0.011	0.6774 ± 0.0066	0.318 ± 0.0091	0.364 ± 0.028	0.5493 ± 0.0012	0.45 ± 0.022
VYQAFIFRMSLF	0.529 ± 0.026	0.672 ± 0.0078	0.586 ± 0.019	0.695 ± 0.016	0.147 ± 0.0025	0.159 ± 0.02	0.248 ± 0.0046	0.243 ± 0.068
VYRVTGSWLMWV	0.511 ± 0.059	0.5758 ± 0.0051	0.483 ± 0.021	0.527 ± 0.0078	0.353 ± 0.03	0.357 ± 0.019	0.4879 ± 0.0027	0.434 ± 0.007
VYTVGFVCWLVY	0.203 ± 0.0067	0.27 ± 0.013	0.208 ± 0.021	0.3458 ± 0.0024	0.185 ± 0.014	0.176 ± 0.025	0.323 ± 0.016	0.316 ± 0.026
VYWRGLHLQRLL	0.681 ± 0.036	0.7679 ± 0.0013	0.652 ± 0.033	0.775 ± 0.024	0.26 ± 0.0053	0.29 ± 0.028	0.4753 ± 0.0016	0.418 ± 0.05
WALWGFVFWDWW	0.402 ± 0.049	0.476 ± 0.016	0.377 ± 0.035	0.5133 ± 0.0029	0.3786 ± 0.0011	0.365 ± 0.023	0.501 ± 0.0078	0.497 ± 0.03
WCGLFCRSVFVV	0.28221 ± 0.00025	0.363 ± 0.0043	0.263 ± 0.033	0.406 ± 0.0015	0.0996 ± 0.0021	0.11 ± 0.023	0.108 ± 0.0023	0.158 ± 0.072
WDEVVAIVVCPV	0.436 ± 0.016	0.421 ± 0.0076	0.293 ± 0.036	0.493 ± 0.012	0.242 ± 0.0082	0.3 ± 0.016	0.457 ± 0.015	0.39 ± 0.023
WFALFYFLVSAF	0.189 ± 0.019	0.257 ± 0.01	0.205 ± 0.036	0.316 ± 0.0074	0.157 ± 0.008	0.187 ± 0.0045	0.254 ± 0.0038	0.266 ± 0.011
WFCYFSLYVFLL	0.0995 ± 0.02	0.149 ± 0.0067	0.168 ± 0.027	0.24 ± 0.0052	0.133 ± 0.012	0.105 ± 0.019	0.153 ± 0.026	0.214 ± 0.095
WFFRCLFLLSLF	0.457 ± 0.0083	0.544 ± 0.028	0.517 ± 0.019	0.601 ± 0.011	0.188 ± 0.015	0.178 ± 0.026	0.23 ± 0.025	0.202 ± 0.034
WFIFTITSVAGL	0.0307 ± 0.009	0.0301 ± 0.0014	0.0273 ± 0.0031	0.0442 ± 0.015	0.0226 ± 0.0015	0.0205 ± 0.0016	0.0325 ± 0.011	0.0312 ± 0.023
WFLRLVGAVFAL	0.539 ± 0.012	0.624 ± 0.039	0.528 ± 0.016	0.621 ± 0.018	0.46 ± 0.0085	0.485 ± 0.025	0.551 ± 0.032	0.447 ± 0.027
WFVLYAEVMGFW	0.205 ± 0.041	0.325 ± 0.043	0.241 ± 0.037	0.491 ± 0.09	0.207 ± 0.029	0.231 ± 0.042	0.409 ± 0.024	0.349 ± 0.0052
WGRAADRRRRLG	0.633 ± 0.054	0.731 ± 0.039	0.628 ± 0.011	0.7658 ± 0.0054	0.152 ± 0.0034	0.207 ± 0.013	0.344 ± 0.018	0.346 ± 0.025
WGRENLTRVKLE	0.70486 ± 0.00049	0.769 ± 0.0032	0.618 ± 0.049	0.725 ± 0.0082	0.207 ± 0.015	0.2 ± 0.017	0.424 ± 0.035	0.372 ± 0.061
